Patent publication US20220235136A1, “METHODS AND COMPOSITIONS FOR TREATING A DISEASE OR DISORDER” (YALE UNIVERSITY, priority 2019, published 2022)

Molecular target: human IGF1R on transfected CHO cells (human), P08069
Experiment: flow cytometry, IGFBP7-Ig on IGF1R transfected CHO cells (CHO-WT: 3.52)
Conditions: remark: other sources report otherwise

human IGF1R on transfected CHO cells (human), P08069, sequence (P08069 31-1367): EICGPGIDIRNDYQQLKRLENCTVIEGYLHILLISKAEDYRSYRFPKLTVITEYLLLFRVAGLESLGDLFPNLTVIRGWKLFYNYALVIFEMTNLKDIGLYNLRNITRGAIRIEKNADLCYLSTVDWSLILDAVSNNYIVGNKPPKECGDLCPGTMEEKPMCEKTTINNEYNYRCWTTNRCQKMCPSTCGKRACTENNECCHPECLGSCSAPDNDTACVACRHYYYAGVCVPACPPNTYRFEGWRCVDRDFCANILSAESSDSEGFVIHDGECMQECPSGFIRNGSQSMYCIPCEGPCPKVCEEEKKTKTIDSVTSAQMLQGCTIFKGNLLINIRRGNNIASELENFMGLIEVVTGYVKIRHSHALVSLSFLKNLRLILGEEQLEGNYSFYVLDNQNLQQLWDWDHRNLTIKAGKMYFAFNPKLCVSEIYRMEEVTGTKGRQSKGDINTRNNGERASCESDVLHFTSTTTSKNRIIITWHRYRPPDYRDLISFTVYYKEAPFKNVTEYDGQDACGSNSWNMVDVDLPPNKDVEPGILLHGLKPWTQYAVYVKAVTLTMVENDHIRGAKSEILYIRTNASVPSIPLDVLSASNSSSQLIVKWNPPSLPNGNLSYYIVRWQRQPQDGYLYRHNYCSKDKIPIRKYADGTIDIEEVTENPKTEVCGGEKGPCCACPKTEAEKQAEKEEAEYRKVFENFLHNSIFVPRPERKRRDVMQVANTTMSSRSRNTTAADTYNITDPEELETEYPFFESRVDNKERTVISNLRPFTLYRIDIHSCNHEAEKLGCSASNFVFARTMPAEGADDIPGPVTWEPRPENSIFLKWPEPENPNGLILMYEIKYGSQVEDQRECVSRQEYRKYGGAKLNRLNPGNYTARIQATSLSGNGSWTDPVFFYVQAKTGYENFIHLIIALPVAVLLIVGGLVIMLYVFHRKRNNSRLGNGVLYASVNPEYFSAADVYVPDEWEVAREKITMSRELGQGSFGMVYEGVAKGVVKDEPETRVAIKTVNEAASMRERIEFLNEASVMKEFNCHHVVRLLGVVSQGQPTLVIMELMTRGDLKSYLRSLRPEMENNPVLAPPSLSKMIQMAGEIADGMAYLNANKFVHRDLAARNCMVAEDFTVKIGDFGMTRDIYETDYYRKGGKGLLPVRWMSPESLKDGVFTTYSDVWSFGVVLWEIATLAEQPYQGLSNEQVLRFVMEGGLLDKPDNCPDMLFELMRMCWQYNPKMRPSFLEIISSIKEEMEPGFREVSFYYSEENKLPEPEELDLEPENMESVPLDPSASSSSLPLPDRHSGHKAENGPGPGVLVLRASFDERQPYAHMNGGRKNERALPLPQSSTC

- number printed above the gate of the dot plot (share of cells in the gate; unit not given): 2.04
B1: Human IGFBP7 (Fc-tag), Sino Biological, Q16270 27-282 (Fc fusion, not shown: a dimerising Fc or GST)
chain: SSSDTCGPCEPASCPPLPPLGCLLGETRDACGCCPMCARGEGEPCGGGGAGRGYCAPGMECVKSRKRRKGKAGAAAGGPGVSGVCVCKSRYPVCGSDGTTYPSGCQLRAASQRAESRGEKAITQVSKGTCEQGPSIVTPPKDIWNVTGAQVYLSCEVIGIPTPVLIWNKVKRGHYGVQRTELLPGDRDNLAIQTRGGPEKHEVTGWVLVSPLSKEDAGEYECHASNSQGQASASAKITVVDALHEIPVKKGEGAEL
